Measured values from patent US20230093708A1, “PROTEIN NANOPARTICLE DESIGN AND APPLICATION” (Duke University, priority 2020, published 2023).

Tests used:
[1] = Cryo-TEM micelle core size, inter-core spacing and aspect ratio; type: physicochemical
Protocol: Using the data from FIG. 18, particularly the longest straight line of an individual particle and a corresponding perpendicular measurement were made to describe the aspect ratio of particles observed.
Cryo-TEM experiments were performed at Duke University's Shared Materials Instrumentation Facility (Durham, N.C.). Lacey holey carbon grids (Ted Pella, Redding, Calif.) were glow discharged in a PELCO EasiGlow Cleaning System (Ted Pella, Redding, Calif.). A 3 μL drop (10 μM RLPn-ELP80) was deposited onto the grid, blotted for 3 s with an offset of −3 mm, and vitrified in liquid ethane using the Vitrobot Mark III (FEI, Eindhoven, Netherlands). Prior to vitrification, the sample chamber was maintained at 15° C. and 100% relative humidity to prevent sample evaporation. Grids were transferred to a Gatan 626 cryoholder (Gatan, Pleasanton, Calif.) and imaged with a FEI Tecnai G2 Twin TEM (FEI, Eindhoven, Netherlands), operating at 80 keV. Feature sizes and spacing distances were measured in ImageJ by manual measurement of at least 25 particles.

[2] = Static and dynamic light scattering (SLS/DLS) of block co-polypeptides; type: physicochemical; details: for ρ: shape factor Rg/Rh
Protocol: Key parameters of interest are the hydrophilicity of the corona-forming block, the hydrophilicity of the core block, the overall length of the co-polypeptide and the ratio of the two blocks. Parameters of evaluation are the size, morphology, stability, and thermoresponsive behavior. All measurements were made in 140 mM NaCl, 10 mM phosphate buffer, 3 mM KCl, pH 7.4 unless otherwise specified. Size was evaluated by the hydrodynamic radios (Rh) and radius of gyration (Rg) by dynamic light scattering (DLS) and static light scattering (SLS) respectively. Rg and Rh can be combined to yield the shape factor ρ=Rg/Rh, which provides a rough indication of the morphology of the scatterer. […] For an elongated scatterer, the shape factor depends upon the aspect ratio. A combination of temperature dependent turbidity and DLS was utilized to determine the phase behavior of the block co-polypeptides. Cryogenic transmission electron microscopy (Cryo-TEM) was utilized to evaluate the morphology and provide crucial insight into the hydration of the core/corona chains. Stability of the assembled nanostructure was determined by a shift in the I1/I3 fluorescent bands of pyrene as described previously.
Static and dynamic light scattering measurements (SLS/DLS) were performed using an ALV/CGS-3 goniometer system (Langen, Germany). Samples for the ALV/CGS-3 goniometer system were prepared at a concentration of 10 μM in PBS and filtered through 0.45 μm Millex-GV filters into a 10 mm disposable borosilicate glass tube (Fischer). Simultaneous SLS and DLS measurements were obtained at 15° C. of the ELP for angles between 30°-150° at 5° increments, with each angle consisting of 3 runs for 15 s. SLS experiments were only conducted for self-assembling block co-polypeptides, since the molecular weight of a single block co-polypeptide chain is already known, and the Rg of a single chain is likely near or below the detection limit of the SLS instrument. The differential refractive index (dn/dc) was determined by measuring the refractive index at different concentrations using an Abbemat 500 refractometer (Anton Paar, Graz, Austria). DLS data were analyzed by fitting the autocorrelation function with a cumulant fit, using the built-in ALV software. Hydrodynamic radius (Rh) was plotted against angle and extrapolated to zero. SLS data were analyzed by partial Zimm plots using ALVSTAT software in order to determine the Rg and molecular weight (MW).

B1: RLP60-ELP80: RLP-ELP block co-polypeptide, 60 core and 80 corona repeats (protein)
chain: QYPSDGRGQYPSDGRGQYPSDGRGQYPSDGRGQYPSDGRGQYPSDGRGQYPSDGRGQYPSDGRGQYPSDGRGQYPSDGRGQYPSDGRGQYPSDGRGQYPSDGRGQYPSDGRGQYPSDGRGQYPSDGRGQYPSDGRGQYPSDGRGQYPSDGRGQYPSDGRGQYPSDGRGQYPSDGRGQYPSDGRGQYPSDGRGQYPSDGRGQYPSDGRGQYPSDGRGQYPSDGRGQYPSDGRGQYPSDGRGQYPSDGRGQYPSDGRGQYPSDGRGQYPSDGRGQYPSDGRGQYPSDGRGQYPSDGRGQYPSDGRGQYPSDGRGQYPSDGRGQYPSDGRGQYPSDGRGQYPSDGRGQYPSDGRGQYPSDGRGQYPSDGRGQYPSDGRGQYPSDGRGQYPSDGRGQYPSDGRGQYPSDGRGQYPSDGRGQYPSDGRGQYPSDGRGQYPSDGRGQYPSDGRGQYPSDGRGQYPSDGRGQYPSDGRGQYPSDGRGGAGVPGGGVPGAGVPGGGVPGAGVPGGGVPGAGVPGGGVPGAGVPGGGVPGAGVPGGGVPGAGVPGGGVPGAGVPGGGVPGAGVPGGGVPGAGVPGGGVPGAGVPGGGVPGAGVPGGGVPGAGVPGGGVPGAGVPGGGVPGAGVPGGGVPGAGVPGGGVPGAGVPGGGVPGAGVPGGGVPGAGVPGGGVPGAGVPGGGVPGAGVPGGGVPGAGVPGGGVPGAGVPGGGVPGAGVPGGGVPGAGVPGGGVPGAGVPGGGVPGAGVPGGGVPGAGVPGGGVPGAGVPGGGVPGAGVPGGGVPGAGVPGGGVPGAGVPGGGVPGAGVPGGGVPGAGVPGGGVPGAGVPGGGVPGAGVPGGGVPGAGVPGGGVPGAGVPGGGVPGAGVPGGGVPGAGVPGGGVP
core radius (cryo-TEM) [1]: ~17.5 nm
spacing between particle cores (cryo-TEM) [1]: 29.5 nm
Spacing (nm) ([1]; Table 2, inter-core spacing, mean ± standard deviation): 28.9 ± 5.1 nm
Core radius (nm) ([1]; Table 2, mean ± standard deviation, 10 μM in 140 mM PBS): 17.5 ± 2.7 nm
Nagg ([2]; Table 1, 10 μM in PBS, 15 °C): 231
Rg(nm) ([2]; Table 1, 10 μM in PBS, 15 °C): 23.8 nm
Rh (nm) ([2]; Table 1, 10 μM in PBS, 15 °C): 36.7 nm
ρ ([2]; Table 1): 0.65

B2: RLP60-ELPV80: RLP-ELP block co-polypeptide with Val guest residue in the corona (protein)
chain: QYPSDGRGQYPSDGRGQYPSDGRGQYPSDGRGQYPSDGRGQYPSDGRGQYPSDGRGQYPSDGRGQYPSDGRGQYPSDGRGQYPSDGRGQYPSDGRGQYPSDGRGQYPSDGRGQYPSDGRGQYPSDGRGQYPSDGRGQYPSDGRGQYPSDGRGQYPSDGRGQYPSDGRGQYPSDGRGQYPSDGRGQYPSDGRGQYPSDGRGQYPSDGRGQYPSDGRGQYPSDGRGQYPSDGRGQYPSDGRGQYPSDGRGQYPSDGRGQYPSDGRGQYPSDGRGQYPSDGRGQYPSDGRGQYPSDGRGQYPSDGRGQYPSDGRGQYPSDGRGQYPSDGRGQYPSDGRGQYPSDGRGQYPSDGRGQYPSDGRGQYPSDGRGQYPSDGRGQYPSDGRGQYPSDGRGQYPSDGRGQYPSDGRGQYPSDGRGQYPSDGRGQYPSDGRGQYPSDGRGQYPSDGRGQYPSDGRGQYPSDGRGQYPSDGRGQYPSDGRGGVGVPGVGVPGVGVPGVGVPGVGVPGVGVPGVGVPGVGVPGVGVPGVGVPGVGVPGVGVPGVGVPGVGVPGVGVPGVGVPGVGVPGVGVPGVGVPGVGVPGVGVPGVGVPGVGVPGVGVPGVGVPGVGVPGVGVPGVGVPGVGVPGVGVPGVGVPGVGVPGVGVPGVGVPGVGVPGVGVPGVGVPGVGVPGVGVPGVGVPGVGVPGVGVPGVGVPGVGVPGVGVPGVGVPGVGVPGVGVPGVGVPGVGVPGVGVPGVGVPGVGVPGVGVPGVGVPGVGVPGVGVPGVGVPGVGVPGVGVPGVGVPGVGVPGVGVPGVGVPGVGVPGVGVPGVGVPGVGVPGVGVPGVGVPGVGVPGVGVPGVGVPGVGVPGVGVPGVGVPGVGVPGVGVPGVGVPGVGVP
Nagg ([2]; Table 5, 10 μM in PBS, 15 °C): 565
Rg(nm) ([2]; Table 5, 10 μM in PBS, 15 °C): 41.3 nm
Rh (nm) ([2]; Table 5, 10 μM in PBS, 15 °C): 39.4 nm
ρ ([2]; Table 5): 1.0

B3: [S]-80-[NHQ]-40: block co-polypeptide of two UCST blocks, (GRGDSPYS)80-(GRGDNPHQ)40 (protein)
chain: GRGDSPYSGRGDSPYSGRGDSPYSGRGDSPYSGRGDSPYSGRGDSPYSGRGDSPYSGRGDSPYSGRGDSPYSGRGDSPYSGRGDSPYSGRGDSPYSGRGDSPYSGRGDSPYSGRGDSPYSGRGDSPYSGRGDSPYSGRGDSPYSGRGDSPYSGRGDSPYSGRGDSPYSGRGDSPYSGRGDSPYSGRGDSPYSGRGDSPYSGRGDSPYSGRGDSPYSGRGDSPYSGRGDSPYSGRGDSPYSGRGDSPYSGRGDSPYSGRGDSPYSGRGDSPYSGRGDSPYSGRGDSPYSGRGDSPYSGRGDSPYSGRGDSPYSGRGDSPYSGRGDSPYSGRGDSPYSGRGDSPYSGRGDSPYSGRGDSPYSGRGDSPYSGRGDSPYSGRGDSPYSGRGDSPYSGRGDSPYSGRGDSPYSGRGDSPYSGRGDSPYSGRGDSPYSGRGDSPYSGRGDSPYSGRGDSPYSGRGDSPYSGRGDSPYSGRGDSPYSGRGDSPYSGRGDSPYSGRGDSPYSGRGDSPYSGRGDSPYSGRGDSPYSGRGDSPYSGRGDSPYSGRGDSPYSGRGDSPYSGRGDSPYSGRGDSPYSGRGDSPYSGRGDSPYSGRGDSPYSGRGDSPYSGRGDSPYSGRGDSPYSGRGDSPYSGRGDSPYSGRGDNPHQGRGDNPHQGRGDNPHQGRGDNPHQGRGDNPHQGRGDNPHQGRGDNPHQGRGDNPHQGRGDNPHQGRGDNPHQGRGDNPHQGRGDNPHQGRGDNPHQGRGDNPHQGRGDNPHQGRGDNPHQGRGDNPHQGRGDNPHQGRGDNPHQGRGDNPHQGRGDNPHQGRGDNPHQGRGDNPHQGRGDNPHQGRGDNPHQGRGDNPHQGRGDNPHQGRGDNPHQGRGDNPHQGRGDNPHQGRGDNPHQGRGDNPHQGRGDNPHQGRGDNPHQGRGDNPHQGRGDNPHQGRGDNPHQGRGDNPHQGRGDNPHQGRGDNPHQ
Rh (nm) ([2]; Table 9, UCST-UCST block co-polypeptides): 7.0 nm

B4: RLP20-ELP40: RLP-ELP block co-polypeptide, (QYPSDGRG)20-(VPG[A:G]G)40 (protein)
chain: QYPSDGRGQYPSDGRGQYPSDGRGQYPSDGRGQYPSDGRGQYPSDGRGQYPSDGRGQYPSDGRGQYPSDGRGQYPSDGRGQYPSDGRGQYPSDGRGQYPSDGRGQYPSDGRGQYPSDGRGQYPSDGRGQYPSDGRGQYPSDGRGQYPSDGRGQYPSDGRGGAGVPGGGVPGAGVPGGGVPGAGVPGGGVPGAGVPGGGVPGAGVPGGGVPGAGVPGGGVPGAGVPGGGVPGAGVPGGGVPGAGVPGGGVPGAGVPGGGVPGAGVPGGGVPGAGVPGGGVPGAGVPGGGVPGAGVPGGGVPGAGVPGGGVPGAGVPGGGVPGAGVPGGGVPGAGVPGGGVPGAGVPGGGVPGAGVPGGGVP
hydrodynamic radius (Rh) [2]: 5.3 nm
Rh (nm) ([2]; Table 3, 10 μM in PBS, 15 °C): 5.3 nm

B5: RLP60-ELPS80: RLP-ELP block co-polypeptide with Ser guest residue in the corona (protein)
chain: QYPSDGRGQYPSDGRGQYPSDGRGQYPSDGRGQYPSDGRGQYPSDGRGQYPSDGRGQYPSDGRGQYPSDGRGQYPSDGRGQYPSDGRGQYPSDGRGQYPSDGRGQYPSDGRGQYPSDGRGQYPSDGRGQYPSDGRGQYPSDGRGQYPSDGRGQYPSDGRGQYPSDGRGQYPSDGRGQYPSDGRGQYPSDGRGQYPSDGRGQYPSDGRGQYPSDGRGQYPSDGRGQYPSDGRGQYPSDGRGQYPSDGRGQYPSDGRGQYPSDGRGQYPSDGRGQYPSDGRGQYPSDGRGQYPSDGRGQYPSDGRGQYPSDGRGQYPSDGRGQYPSDGRGQYPSDGRGQYPSDGRGQYPSDGRGQYPSDGRGQYPSDGRGQYPSDGRGQYPSDGRGQYPSDGRGQYPSDGRGQYPSDGRGQYPSDGRGQYPSDGRGQYPSDGRGQYPSDGRGQYPSDGRGQYPSDGRGQYPSDGRGQYPSDGRGQYPSDGRGGSGVPGSGVPGSGVPGSGVPGSGVPGSGVPGSGVPGSGVPGSGVPGSGVPGSGVPGSGVPGSGVPGSGVPGSGVPGSGVPGSGVPGSGVPGSGVPGSGVPGSGVPGSGVPGSGVPGSGVPGSGVPGSGVPGSGVPGSGVPGSGVPGSGVPGSGVPGSGVPGSGVPGSGVPGSGVPGSGVPGSGVPGSGVPGSGVPGSGVPGSGVPGSGVPGSGVPGSGVPGSGVPGSGVPGSGVPGSGVPGSGVPGSGVPGSGVPGSGVPGSGVPGSGVPGSGVPGSGVPGSGVPGSGVPGSGVPGSGVPGSGVPGSGVPGSGVPGSGVPGSGVPGSGVPGSGVPGSGVPGSGVPGSGVPGSGVPGSGVPGSGVPGSGVPGSGVPGSGVPGSGVPGSGVPGSGVPGSGVP
Nagg ([2]; Table 5, 10 μM in PBS, 15 °C): 244
Rg(nm) ([2]; Table 5, 10 μM in PBS, 15 °C): 27.5 nm
Rh (nm) ([2]; Table 5, 10 μM in PBS, 15 °C): 43.5 nm
ρ ([2]; Table 5): 0.6
